This is an account of results in patent publication US20030185792A1, “Morphogen analogs of bone morphogenic proteins” (Curis, Inc., priority 1996, published 2003).

Read-outs that look alike come from different tables or passages of the source. Bridge positions count the residues as written; N and C are the ends. Ends that are not written are not given here.

Experiment [1] deals with OP-1 receptor of ROS cells (OP-1 receptor-enriched plasma membrane fraction of ROS cells) (rat). Put plainly: binding of ^125I-OP-1 to excess receptor (ROS cell plasma membranes).
Experiment [2] shares this target. Put plainly: equilibrium binding of ^125I-OP-1 to OP-1 receptor-enriched ROS cell plasma membranes.
Experiment [3] shares this target. Put plainly: displacement of ^125I-soluble OP-1 from ROS cell plasma membranes.
For experiment [4] the target is unchanged.
Experiment [5] shares this target. Put plainly: radioligand receptor assay, ROS cell plasma membranes.
Experiment [6] shares this target. This is another data set of the same source.
For experiment [7] the target is unchanged. This is another data set of the same source.
Experiment [8] has the same target. This is another data set of the same source.
Experiment [9] has the same target. This is another data set of the same source.
Experiment [10] has the same target. The source holds these as a separate data set.
For experiment [11] the target is unchanged. This is another data set of the same source.

B1: OP-1 (osteogenic protein-1), mature human OP-1 (ligand)
chain: CKKHELYVSFRDLGWQDWIIAPEGYAAYYCEGECAFPLNSYMNATNHAIVQTLVHFINPETVPKPCCAPTQLNAISVLYFDDSSNVILKKYRNMVVRACGCH
modifications: radio-iodinated (^125I) when used as tracer; unlabeled when used as competitor or in the bioassay
With B1, the percent bindability to excess receptor in experiment [1] was in the range of 30 to 37%. Also, in [2], the Ka turned out to be 4.38e+09 M⁻¹ and the average OP-1 binding capacity (pmol/mg protein) worked out at 3.6.
Consider CYFDDSSNVICKKYRS (disulfide 1-11) [Peptide F2-3], for which the ED50 came to 5 µM in experiment [3] and 10 µM in experiment [5]. In experiment [4], this molecule came in with an alkaline phosphatase activity of ROS cells, increase relative to soluble OP-1 alone of 20%. Besides, the OP-1 induced cellular alkaline phosphatase activity of ROS cells, % increase in OP-1 response relative to the absence of peptide in experiment [6] was determined as 53%.
Consider CYFDDSSNVIC (disulfide 1-11) [Peptide F2-2], for which the ED50 in [3] and in [5] was 1 µM in each case. In [4], this molecule displayed an alkaline phosphatase activity of ROS cells, increase relative to soluble OP-1 alone of 20%. Also, in experiment [7], the OP-1 induced cellular alkaline phosphatase activity of ROS cells, potentiation is 20%.

B2: Peptide H-C2 (peptide)
peptide: CCFINPETVCC
modifications: disulfide (positions not given here); not fully specified (bridges); also: double disulfide bonds, pairing of the four Cys not given here
As to B2, the IC50 (peptide concentration giving 50% inhibition of cellular responsiveness to OP-1), ROS cell alkaline phosphatase in experiment [8] was 5 µM. Besides, the concentration at which the binding of ^125I-labeled OP-1 to the receptor was potentiated in [5] worked out at 8 µM.
The molecule CLNAISVLYFDDSSNVILKKYRNMVVRC (disulfide 1-28 (inferred)) [Peptide F2-1] yielded an IC50 (peptide concentration inhibiting the OP-1 induced cell response by 50%), ROS cell alkaline phosphatase in experiment [9] of 8 µM.
CELYVSFRDLGWQDWIIAPEGYAAYC (disulfide 1-26) [Peptide F1-1]: in experiment [10], the IC50 (peptide concentration giving 50% inhibition of cellular responsiveness to OP-1), ROS cell alkaline phosphatase was 20 µM.
CFRDLGWQDWIIAPC (disulfide 1-15) [Peptide F1-2] showed a concentration required to inhibit the binding of ^125I-labeled OP-1 in [5] of 179 µM. In addition, the IC50 (peptide concentration giving 50% inhibition of the cell response to OP-1), ROS cell alkaline phosphatase in [11] stood at 10 µM.
